± gives the half width of the 95% confidence interval.
Tests used:
[1] = folding stability dG unfold from chymotrypsin proteolysis; higher = more stable
Procedure: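 Folding stability of de novo designed mini-proteins (<80 aa, no Cys; designed by TrROS, TrMRF, ProteinMPNN and the joint model) was measured by cDNA display proteolysis with trypsin and chymotrypsin. Each protease was used at 11 concentrations in a threefold dilution series plus a no-protease condition. K50 was inferred by Bayesian fitting of sequencing counts, and dG unfold was derived against a sequence-predicted unfolded-state K50 (Tsuboyama et al. method). Sequences shown include variable-length N-terminal GS-type padding (SAGGSAGG...) inside a display construct carrying a PA tag. Rows were kept only if the AF2 dimer inter-PAE was >15, to exclude likely homo-oligomers.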

[2] = folding stability dG unfold (combined trypsin and chymotrypsin); higher = more stable
In short: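 Mini-proteins designed to be under 80 residues and free of cysteine were carried in a PA-tagged cDNA display construct and digested with trypsin and with chymotrypsin. Each protease was applied at 11 threefold-diluted concentrations, alongside a no-protease condition, before sequencing. K50 came from Bayesian fitting of the sequencing counts, and unfolding free energy was obtained by comparing it with a sequence-predicted unfolded-state K50 and a shared folded-state K50, for each protease separately or for both together. Designs were retained only if their AlphaFold2 dimer inter-PAE exceeded 15.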

Row | Sequence | folding stability dG unfold [1] | folding stability dG unfold [2]
1 | SKPITADEIAKHFPGIKDVEPTPNKKRLDFDNPNGHKPTIEVSPDGTIMIEHQNPDNGQKQEQEIPIDDLSA [r9_427_TrROS] | 0.596 ± 0.056 kcal/mol | 0.0598 ± 0.26 kcal/mol
2 | SAGGSAGGSAGVKRIKDVRNPNGNKIRDVEVEEENDPNGNKYLTIKARHKNGNEQEHTLPSAGGSAGGSAGG [r11_810_TrROS] | 0.568 ± 0.25 kcal/mol | -0.18 ± 0.75 kcal/mol
3 | SAGGSAGGVEELAKKLNIEVTGNEVTITLKKKKVTVKKLKAPPLKVKKYVDKKTKKIVKTEVELSAGGSAGG [r6_981_TrROS_Hall] | 0.9 ± 0.28 kcal/mol | 0.431 ± 0.29 kcal/mol
4 | SAGKVLEELGYELVEEKEEEIGDVKIITATFPVGESPVVVTAEVTEKKEDDKPIVKVKVTVTPLPPEAPSAG [r5_516_JUSTAS] | 0.977 ± 0.17 kcal/mol | 0.58 ± 0.51 kcal/mol
5 | SAGGSAGGSGMPRKIASYEEKEEEDGKKTVKVRFPDDGKEITLSPEKAGKITPDSTVPLEELLSAGGSAGGS [r20_3_JUSTAS] | 0.404 ± 0.049 kcal/mol | -0.168 ± 0.43 kcal/mol
6 | SAGGSAGGPPPVRVTIETETTTTFPNGTPRTTTNTVVLDAPEEEAEAAVAAIPASVVKSVARTGSAGGSAGG [r6_985_JUSTAS] | 0.486 ± 0.057 kcal/mol | -0.187 ± 0.24 kcal/mol
7 | SAGGSAGGDIKIEDIEYEQNPGGWQKVEVRLPGNGRPIEVPVPPGMPYEQAKDWAKDWAEELLKSAGGSAGG [r6_628_TrROS] | 0.724 ± 0.13 kcal/mol | 0.511 ± 0.22 kcal/mol
8 | SAGGSAGGSAGGLHPDQEFAVRLDLDLDLRLGPGADLRVSDVRVGGVRVYDLRTGRWLDSAGGSAGGSAGGS [r10_248_TrMRF] | 0.445 ± 0.15 kcal/mol | -0.323 ± 0.25 kcal/mol
9 | SAGGSAGGSMKTVKPTELLASLSPEEEVILTTPTSATRLTVEEVKNVPEDTPVDVEVVPRNAASAGGSAGGS [r12_501_JUSTAS] | 0.685 ± 0.015 kcal/mol | 0.244 ± 0.051 kcal/mol
10 | SAGGSAGGAPVYVTTDTRERADPNGSTVRTSLVRDPNGPATYRVTETVPPDGSVASTTTAVPGASAGGSAGG [r6_839_JUSTAS] | -0.532 ± 0.23 kcal/mol | < -1 kcal/mol
11 | SAGGMGVRVEEKVLATSESSTPDGTPVTFTETETKITLPPGTVVTVKKLLETGGGGRKVLEETTSPLASAGG [r13_898_JUSTAS] | 0.092 ± 0.039 kcal/mol | -0.295 ± 0.14 kcal/mol
12 | SAGGSAGGSDIEIIINPNMSLEQAKKFANYLAQENNIPIEIEIIPPPKPEPEPERDPEDGKPKSAGGSAGGS [r12_159_TrROS] | -0.232 ± 0.36 kcal/mol | < -1 kcal/mol
13 | SAGGSAGGSAGGDPDLPVYSVSPTTIPAPPGQDSPTPGPNSVTVDANGTATVTETSVSLVSAGGSAGGSAGG [r7_556_JUSTAS] | -0.6 ± 0.2 kcal/mol | < -1 kcal/mol
14 | SAGGSAGGSAGGKLTLKLGDYEVEVEWNPDEDVFIAEFPGDPRIARLRIPDDKIEIEPIESAGGSAGGSAGG [r7_156_TrMRF] | 0.819 ± 0.12 kcal/mol | 0.392 ± 0.11 kcal/mol
15 | SAGGSAGGSAGGSSVYTSPSKPIAITSRTLVPESNLVRVEAVDPSGAPIEGIIPPSATLGSAGGSAGGSAGG [r7_427_JUSTAS] | -0.114 ± 0.27 kcal/mol | < -1 kcal/mol
16 | SAGGSAGGSAGNISSLPPTPITGSSLKRFVVKRPDGTEEEVTLEITYYPETGKEIISTIKSAGGSAGGSAGG [r11_1024_JUSTAS] | 0.107 ± 0.31 kcal/mol | -0.0512 ± 0.21 kcal/mol
17 | SAGKMTIEIVVEVKPGMTEEELKEKLEELVKKLKEEFPELKNLEIKIVEVKVERLEDGTLRVTVKIEVKSAG [r5_985_TrROS_Hall] | 3.08 ± 0.24 kcal/mol | > 6 kcal/mol
18 | SAGGSAGGSAGGGPGFTVLERREDPATGTVTILRRFAFPDGSTALEPRVVPRAPDERLESAGGSAGGSAGGS [r10_605_JUSTAS] | -0.0135 ± 0.17 kcal/mol | < -1 kcal/mol

Row | Sequence | folding stability dG unfold [1] | folding stability dG unfold [2]
19 | SAGGSAGGSMEKRKLEIEIHLPASEATEEEMEELAEEYAKKNPEADEVTFKFTVEESDKESLESAGGSAGGS [r20_86_JUSTAS] | -0.141 ± 0.25 kcal/mol | -0.605 ± 0.33 kcal/mol
20 | SAGRIKSIQINPYENPNGQYPITVRVRWPGNGKERDRNFPMSPNDARNQAKELAKELPGKPLEIDEITSAGG [r19_317_TrROS] | -0.545 ± 0.15 kcal/mol | -0.943 ± 0.19 kcal/mol
21 | SGMTIEVEKEIEIYDPEKGVKIGSVKVKVLVPTSYSPEEIPEIAEKEIKKAKEELEKPEPPEVNEDGTLKSA [r9_454_JUSTAS] | 0.751 ± 0.035 kcal/mol | 0.241 ± 0.16 kcal/mol
22 | TIKELAKKLGGPITVETEQYPIENPDGNPYYITDIEVQVNPNDGSLRINYEVYNPGNGKKQEEEDTIPLDDS [r1_448_TrROS] | -0.708 ± 0.42 kcal/mol | < -1 kcal/mol
23 | SAGDWIREAIKKAGYDNVEIEEIQPNPNGGVSIVIQPSPGMPREQQRRAQEEIVDALREESPDFKIHIHSAG [r5_101_TrROS] | 0.584 ± 0.087 kcal/mol | 0.192 ± 0.26 kcal/mol
24 | SAGGSAGGSGMPTRNVPITTPDGKVVTVVERPPERAEIIFPDGSRATIVDPARGYEEITITPESAGGSAGGS [r12_491_JUSTAS] | 0.945 ± 0.027 kcal/mol | 0.542 ± 0.059 kcal/mol
25 | SAGGSAGGSAGGMILTGDRAEILARLEAEGLGVAEEETVEEGDAPVTPVRVEVPPGAAGSAGGSAGGSAGGS [r10_885_JUSTAS] | 0.972 ± 0.028 kcal/mol | 0.561 ± 0.11 kcal/mol
26 | SAGGSSLPPEYTVTEVEREFTTPEDVAEARAAAEAAAAAGAEVLEVTVERPEDGSYRVRFTLATPRSAGGSA [r2_350_JUSTAS] | 0.611 ± 0.22 kcal/mol | 0.0151 ± 0.24 kcal/mol
27 | SAMDLSTLPPSTSVTPSTSSLPGNLSRSTYTLTTRDPETGALTVTTVTTYTDPSSSSTTVTPSTTLLPASAG [r14_307_JUSTAS] | 0.34 ± 0.22 kcal/mol | 0.00104 ± 0.15 kcal/mol
28 | SAGGSAGGKTKVKGTLIGPNGPPVEVEGEALLPDGREYDVHIDAVLLPDPEGEPTVVVKVEVKPSAGGSAGG [r6_334_TrMRF] | 0.168 ± 0.051 kcal/mol | -0.127 ± 0.23 kcal/mol
29 | SAGGSAGGSAGMKDNLVVTRTYTLPDDTVLVTRATFDSNPELVTVDVTEVPLSDVAPDAVSAGGSAGGSAGG [r11_493_TrMRF] | 0.514 ± 0.11 kcal/mol | -0.0312 ± 0.14 kcal/mol
30 | SAGGSAGGSAAPDLVTETETRTHPETGLVITRERVTLPSTGTTEERTVVTDPETGVTTTEKSSAGGSAGGSA [r18_383_JUSTAS] | 0.294 ± 0.038 kcal/mol | -0.139 ± 0.13 kcal/mol
31 | SAGGSAGGSAMPERRAAEAAAAPPPVPKVVITSPGSEEEARRIEEELRAAPGVEEVTVTVVPRLSAGGSAGG [r6_285_JUSTAS] | 0.804 ± 0.045 kcal/mol | 0.0774 ± 0.16 kcal/mol
32 | SAGGSAGGSVYLDPAVLAELEALRQAGLRVAEVREERVEVEGGPPRRVDVRAVVVDLPPEALAASAGGSAGG [r6_771_JUSTAS] | 0.621 ± 0.056 kcal/mol | -0.11 ± 0.18 kcal/mol
33 | SAGDISPSDPVTVRVEVEKDPNSKSTLVRVDEETPTGRRLERRIPADGPVVVTEREPASGATRVTVEPASAG [r5_55_JUSTAS] | 0.00901 ± 0.071 kcal/mol | -0.563 ± 0.11 kcal/mol
34 | SAGGMITLEEPELDPSRPVTRVKVLTEIPAPGGVPVVVETTYTDTRAPGDPSVTVVTSTTTVVPGAAGSAGG [r13_131_JUSTAS] | -0.0242 ± 0.055 kcal/mol | -0.834 ± 0.27 kcal/mol
35 | SAGGSATFEEALREVAEPTGAVPYVDPETGVAYVDFPDGKELEIEVPDGDRIEVRVLPDGRAVARGSAGGSA [r15_256_TrMRF] | -0.494 ± 0.19 kcal/mol | < -1 kcal/mol
36 | SAGGSAGGSMNVKKVESEKDTGDGSTLTTNTVELPSNIIIVEPVLTPPSGNPQTTTKILPKGLSAGGSAGGS [r12_407_JUSTAS] | -0.157 ± 0.12 kcal/mol | -0.5 ± 0.18 kcal/mol
